The results in this text go back to PMC8034659.

Common to all, as to test: SPR
(In general: Surface plasmon resonance follows binding to a sensor surface in real time, without labels.)

In one data set the target is T1, TrfA R236E (plasmid RK2, UniProt P07676 98-382, R236E;G254D;S267L).
T1 sequence: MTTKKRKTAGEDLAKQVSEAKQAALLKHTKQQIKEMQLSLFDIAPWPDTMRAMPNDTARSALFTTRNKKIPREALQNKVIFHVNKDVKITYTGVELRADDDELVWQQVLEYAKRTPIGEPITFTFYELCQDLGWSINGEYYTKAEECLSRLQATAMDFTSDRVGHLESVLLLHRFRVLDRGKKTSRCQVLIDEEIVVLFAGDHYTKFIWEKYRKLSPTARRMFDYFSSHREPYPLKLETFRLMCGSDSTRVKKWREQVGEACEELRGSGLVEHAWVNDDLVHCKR

In a further data set the target is T2, TrfA P168E (plasmid RK2, UniProt P07676 98-382, P168E;G254D;S267L).
T2 sequence: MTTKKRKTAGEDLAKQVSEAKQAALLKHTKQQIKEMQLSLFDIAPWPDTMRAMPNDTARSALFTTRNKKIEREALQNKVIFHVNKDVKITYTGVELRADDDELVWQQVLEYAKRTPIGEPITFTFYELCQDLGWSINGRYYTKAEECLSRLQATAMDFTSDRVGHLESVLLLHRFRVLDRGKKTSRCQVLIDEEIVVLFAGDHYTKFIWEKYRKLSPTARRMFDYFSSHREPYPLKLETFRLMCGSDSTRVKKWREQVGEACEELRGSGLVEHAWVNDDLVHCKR

For the next data set, the target named is T3, TrfA N234E (plasmid RK2, UniProt P07676 98-382, N234E;G254D;S267L).
T3 sequence: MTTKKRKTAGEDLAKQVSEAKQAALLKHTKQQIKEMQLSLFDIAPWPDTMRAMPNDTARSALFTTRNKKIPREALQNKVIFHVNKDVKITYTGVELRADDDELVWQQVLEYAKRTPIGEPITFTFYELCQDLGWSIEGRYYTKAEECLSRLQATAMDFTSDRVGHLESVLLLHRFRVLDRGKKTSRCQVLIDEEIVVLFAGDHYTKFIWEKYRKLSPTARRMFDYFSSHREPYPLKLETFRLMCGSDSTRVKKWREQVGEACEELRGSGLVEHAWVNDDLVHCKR

The next data set has as its target T4, TrfA K165E (plasmid RK2, UniProt P07676 98-382, K165E;G254D;S267L).
T4 sequence: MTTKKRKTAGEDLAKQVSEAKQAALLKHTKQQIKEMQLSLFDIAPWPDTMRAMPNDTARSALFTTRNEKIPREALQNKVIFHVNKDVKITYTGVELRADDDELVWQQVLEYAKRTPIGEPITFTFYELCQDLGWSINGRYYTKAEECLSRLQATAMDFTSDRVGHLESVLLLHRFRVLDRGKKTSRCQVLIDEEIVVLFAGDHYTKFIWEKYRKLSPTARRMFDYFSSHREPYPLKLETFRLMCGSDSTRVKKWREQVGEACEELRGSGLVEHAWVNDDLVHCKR

B1: five RK2 iterons (ItT/ItB) (dsDNA)
DNA 1: CCTGCGGTATTGACACTTGAGGGGCGCGACTACTGACAGATGAGGGGCGCGATCCTTGACACTTGAGGGGCAGAGTGATGACAGATGAGGGGCGCACCTATTGACATTTGAGGGGCTGTCCACAGGCAG
DNA 2: CTGCCTGTGGACAGCCCCTCAAATGTCAATAGGTGCGCCCCTCATCTGTCATCACTCTGCCCCTCAAGTGTCAAGGATCGCGCCCCTCATCTGTCAGTAGTCGCGCCCCTCAAGTGTCAATACCGCAGG
Turning to B1, the binding result is on record as “no binding” with TrfA R236E, “binds” in the data set with TrfA P168E, “no binding” in the data set with TrfA N234E and “no binding” with TrfA K165E.
